Assay results reported in US12060424 (AMUNIX PHARMACEUTICALS, dated 2024).

T1: human EpCAM expressed on cells (CHO cells stably transfected with human EpCAM); EpCAM-positive human tumor … (human, UniProt P16422 24-314)
T1 sequence (looked up): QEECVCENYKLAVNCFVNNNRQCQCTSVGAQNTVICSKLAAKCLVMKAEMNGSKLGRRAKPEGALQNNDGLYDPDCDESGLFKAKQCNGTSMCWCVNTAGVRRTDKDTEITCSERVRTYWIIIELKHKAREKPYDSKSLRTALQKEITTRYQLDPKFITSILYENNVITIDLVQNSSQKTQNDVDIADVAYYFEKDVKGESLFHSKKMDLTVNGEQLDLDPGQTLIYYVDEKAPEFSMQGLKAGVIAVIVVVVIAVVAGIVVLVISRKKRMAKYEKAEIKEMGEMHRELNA


Columns and labels:
[1] = biological target: T1, human EpCAM expressed on cells (CHO …); assay: cell-based or functional assay
[2] = biological target: recombinant human CD3 epsilon & delta (rhCD3ε & δ), Creative BioMart cat #CD3E&CD3D-219H (human) (UniProt P07766); assay: sandwich ELISA: rhCD3ε & δ coated, biotinylated anti-XTEN antibody detection
Chain of recombinant human CD3 epsilon & delta (rhCD3ε & δ), Creative BioMart cat #CD3E&CD3D-219H (human) (P07766 23-126, stated change not applied, chain 1 of 2): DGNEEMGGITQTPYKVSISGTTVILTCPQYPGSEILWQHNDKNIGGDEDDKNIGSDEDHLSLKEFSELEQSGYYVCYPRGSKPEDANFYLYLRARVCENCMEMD
Chain of recombinant human CD3 epsilon & delta (rhCD3ε & δ), Creative BioMart cat #CD3E&CD3D-219H (human) (P04234 22-105, stated change not applied, chain 2 of 2, further chain): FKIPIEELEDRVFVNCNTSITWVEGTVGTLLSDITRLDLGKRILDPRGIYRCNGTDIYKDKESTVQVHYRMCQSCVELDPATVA

| Binder | EC50 (pM), caspase 3/7 cytotoxicity, PBMC with HCT-116 cells 10:1 [1] [pM] | EC50 (pM), caspase 3/7 cytotoxicity, PBMC with HPAF-II cells 10:1 [1] [pM] | EC50 (pM), caspase 3/7 cytotoxicity, PBMC with MDA-MB-231 cells 10:1 [1] [pM] | EC50 [2] [µg/mL] |
| --- | --- | --- | --- | --- |
| AC1684 protease-untreated anti-EpCAM×anti-CD3 ProTIA (bispecific antibody) DIQMTQSPSSLSASVGDRVTITCRSTKSLLHSNGITYLYWYQQKPGKAPKLLIYQMSNLASGVPSRFSSSGSGTDFTLTISSLQPEDFATYYCAQNLEIPRTFGQGTKVEIKGATPPETGAETESPGETTGGSAESEPPGEGQVQLVQSGPGLVQPGGSVRISCAASGYTFTNYGMNWVKQAPGKGLEWMGWINTYTGESTYADSFKGRFTFSLDTSASAAYLQINSLRAEDTAVYYCARFAIKGDYWGQGTLLTVSSGGGGSDIQMTQSPSSLSASVGDRVTITCRASQDIRNYLNWYQQKPGKAPKLLIYYTSRLESGVPSRFSGSGSGTDYTLTISSLQPEDFATYYCQQGNTLPWTFGQGTKVEIKGATPPETGAETESPGETTGGSAESEPPGEGEVQLVESGGGLVQPGGSLRLSCAASGYSFTGYTMNWVRQAPGKGLEWVALINPYKGVSTYNQKFKDRFTISVDKSKNTAYLQMNSLRAEDTAVYYCARSGYYGDSDWYFDVWGQGTLVTVSSGTAEAASASGESGRAANTEPPELGAGPGSPAGSPTSTEEGTSESATPESGPGTSTEPSEGSAPGSPAGSPTSTEEGTSTEPSEGSAPGTSTEPSEGSAPGTSESATPESGPGSEPATSGSETPGSEPATSGSETPGSPAGSPTSTEEGTSESATPESGPGTSTEPSEGSAPGTSTEPSEGSAPGSPAGSPTSTEEGTSTEPSEGSAPGTSTEPSEGSAPGTSESATPESGPGTSTEPSEGSAPGTSESATPESGPGSEPATSGSETPGTSTEPSEGSAPGTSTEPSEGSAPGTSESATPESGPGTSESATPESGPGSPAGSPTSTEEGTSESATPESGPGSEPATSGSETPGTSESATPESGPGTSTEPSEGSAPGTSTEPSEGSAPGTSTEPSEGSAPGTSTEPSEGSAPGTSTEPSEGSAPGTSTEPSEGSAPGSPAGSPTSTEEGTSTEPSEGSAPGTSESATPESGPGSEPATSGSETPGTSESATPESGPGSEPATSGSETPGTSESATPESGPGTSTEPSEGSAPGTSESATPESGPGSPAGSPTSTEEGSPAGSPTSTEEGSPAGSPTSTEEGTSESATPESGPGTSTEPSEGSAPGTSESATPESGPGSEPATSGSETPGTSESATPESGPGSEPATSGSETPGTSESATPESGPGTSTEPSEGSAPGSPAGSPTSTEEGTSESATPESGPGSEPATSGSETPGTSESATPESGPGSPAGSPTSTEEGSPAGSPTSTEEGTSTEPSEGSAPGTSESATPESGPGTSESATPESGPGTSESATPESGPGSEPATSGSETPGSEPATSGSETPGSPAGSPTSTEEGTSTEPSEGSAPGTSTEPSEGSAPGSEPATSGSETPGTSESATPESGPGTSTEPSEGSAPGHHHHHH | 32 | 24 | 12200 | 0.031 |
| AC1685 protease-untreated anti-EpCAM×anti-CD3 ProTIA (bispecific antibody) DIQMTQSPSSLSASVGDRVTITCRSTKSLLHSNGITYLYWYQQKPGKAPKLLIYQMSNLASGVPSRFSSSGSGTDFTLTISSLQPEDFATYYCAQNLEIPRTFGQGTKVEIKGATPPETGAETESPGETTGGSAESEPPGEGQVQLVQSGPGLVQPGGSVRISCAASGYTFTNYGMNWVKQAPGKGLEWMGWINTYTGESTYADSFKGRFTFSLDTSASAAYLQINSLRAEDTAVYYCARFAIKGDYWGQGTLLTVSSGGGGSDIQMTQSPSSLSASVGDRVTITCRASQDIRNYLNWYQQKPGKAPKLLIYYTSRLESGVPSRFSGSGSGTDYTLTISSLQPEDFATYYCQQGNTLPWTFGQGTKVEIKGATPPETGAETESPGETTGGSAESEPPGEGEVQLVESGGGLVQPGGSLRLSCAASGYSFTGYTMNWVRQAPGKGLEWVALINPYKGVSTYNQKFKDRFTISVDKSKNTAYLQMNSLRAEDTAVYYCARSGYYGDSDWYFDVWGQGTLVTVSSGTAEAASASGESGRAANTAPEGLTGPPGSPAGSPTSTEEGTSESATPESGPGTSTEPSEGSAPGSPAGSPTSTEEGTSTEPSEGSAPGTSTEPSEGSAPGTSESATPESGPGSEPATSGSETPGSEPATSGSETPGSPAGSPTSTEEGTSESATPESGPGTSTEPSEGSAPGTSTEPSEGSAPGSPAGSPTSTEEGTSTEPSEGSAPGTSTEPSEGSAPGTSESATPESGPGTSTEPSEGSAPGTSESATPESGPGSEPATSGSETPGTSTEPSEGSAPGTSTEPSEGSAPGTSESATPESGPGTSESATPESGPGSPAGSPTSTEEGTSESATPESGPGSEPATSGSETPGTSESATPESGPGTSTEPSEGSAPGTSTEPSEGSAPGTSTEPSEGSAPGTSTEPSEGSAPGTSTEPSEGSAPGTSTEPSEGSAPGSPAGSPTSTEEGTSTEPSEGSAPGTSESATPESGPGSEPATSGSETPGTSESATPESGPGSEPATSGSETPGTSESATPESGPGTSTEPSEGSAPGTSESATPESGPGSPAGSPTSTEEGSPAGSPTSTEEGSPAGSPTSTEEGTSESATPESGPGTSTEPSEGSAPGTSESATPESGPGSEPATSGSETPGTSESATPESGPGSEPATSGSETPGTSESATPESGPGTSTEPSEGSAPGSPAGSPTSTEEGTSESATPESGPGSEPATSGSETPGTSESATPESGPGSPAGSPTSTEEGSPAGSPTSTEEGTSTEPSEGSAPGTSESATPESGPGTSESATPESGPGTSESATPESGPGSEPATSGSETPGSEPATSGSETPGSPAGSPTSTEEGTSTEPSEGSAPGTSTEPSEGSAPGSEPATSGSETPGTSESATPESGPGTSTEPSEGSAPGHHHHHH | 27 | 29 | 4340 | 0.029 |
| AC1686 protease-untreated anti-EpCAM×anti-CD3 ProTIA (bispecific antibody) DIQMTQSPSSLSASVGDRVTITCRSTKSLLHSNGITYLYWYQQKPGKAPKLLIYQMSNLASGVPSRFSSSGSGTDFTLTISSLQPEDFATYYCAQNLEIPRTFGQGTKVEIKGATPPETGAETESPGETTGGSAESEPPGEGQVQLVQSGPGLVQPGGSVRISCAASGYTFTNYGMNWVKQAPGKGLEWMGWINTYTGESTYADSFKGRFTFSLDTSASAAYLQINSLRAEDTAVYYCARFAIKGDYWGQGTLLTVSSGGGGSDIQMTQSPSSLSASVGDRVTITCRASQDIRNYLNWYQQKPGKAPKLLIYYTSRLESGVPSRFSGSGSGTDYTLTISSLQPEDFATYYCQQGNTLPWTFGQGTKVEIKGATPPETGAETESPGETTGGSAESEPPGEGEVQLVESGGGLVQPGGSLRLSCAASGYSFTGYTMNWVRQAPGKGLEWVALINPYKGVSTYNQKFKDRFTISVDKSKNTAYLQMNSLRAEDTAVYYCARSGYYGDSDWYFDVWGQGTLVTVSSGTAEAASASGEPGRAANHEPSGLTEGPGSPAGSPTSTEEGTSESATPESGPGTSTEPSEGSAPGSPAGSPTSTEEGTSTEPSEGSAPGTSTEPSEGSAPGTSESATPESGPGSEPATSGSETPGSEPATSGSETPGSPAGSPTSTEEGTSESATPESGPGTSTEPSEGSAPGTSTEPSEGSAPGSPAGSPTSTEEGTSTEPSEGSAPGTSTEPSEGSAPGTSESATPESGPGTSTEPSEGSAPGTSESATPESGPGSEPATSGSETPGTSTEPSEGSAPGTSTEPSEGSAPGTSESATPESGPGTSESATPESGPGSPAGSPTSTEEGTSESATPESGPGSEPATSGSETPGTSESATPESGPGTSTEPSEGSAPGTSTEPSEGSAPGTSTEPSEGSAPGTSTEPSEGSAPGTSTEPSEGSAPGTSTEPSEGSAPGSPAGSPTSTEEGTSTEPSEGSAPGTSESATPESGPGSEPATSGSETPGTSESATPESGPGSEPATSGSETPGTSESATPESGPGTSTEPSEGSAPGTSESATPESGPGSPAGSPTSTEEGSPAGSPTSTEEGSPAGSPTSTEEGTSESATPESGPGTSTEPSEGSAPGTSESATPESGPGSEPATSGSETPGTSESATPESGPGSEPATSGSETPGTSESATPESGPGTSTEPSEGSAPGSPAGSPTSTEEGTSESATPESGPGSEPATSGSETPGTSESATPESGPGSPAGSPTSTEEGSPAGSPTSTEEGTSTEPSEGSAPGTSESATPESGPGTSESATPESGPGTSESATPESGPGSEPATSGSETPGSEPATSGSETPGSPAGSPTSTEEGTSTEPSEGSAPGTSTEPSEGSAPGSEPATSGSETPGTSESATPESGPGTSTEPSEGSAPGHHHHHH | 240 | 118 | 2680 | 0.026 |
